How the values were obtained:
[1] = target: T1, Epidermal growth factor receptor (EGFR), wild type (human, UniProt P00533 25-1210); experiment: immunofluorescence staining and confocal microscopy of SW48 cells treated with PEPD^G278D (25 nM), anti-His tag and anti-EGFR
T1 construct: whole, on cells; also called WT EGFR; ErbB1
Method: The cells were then washed with ice-cold PBS, fixed with 4% paraformaldehyde for 20 min at room temperature (RT), washed again with ice-cold PBS and blocked with 1% BSA in PBS for 1 h at RT. […] The cells were then examined with a BZ-X700 fluorescence microscope (Keyence) with a S PL FL ELWD ADM 40xC objective. Merged images from Z-stack were organized using the ImageJ software (NIH Image).
SW48 cells were cultured in serum-free medium.

[2] = target: Epidermal growth factor receptor (EGFR), wild type, P00533
[3] = target: HER2, P04626

binding result [1]: binds
B1: PEPD^G278D (recombinant, enzymatically inactive mutant of human peptidase D, glycine 278 replaced by aspartic acid) (enzyme)
chain: AAATGPSFWLGNETLKVPLALFALNRQRLCERLRKNPAVQAGSIVVLQGGEETQRYCTDTGVLFLQESFFHWAFGVTEPGCYGVIDVDTGKSTLFVPRLPASHATWMGKIHSKEHFKEKYAVDDVQYVDEIASVLTSQKPSVLLTLRGVNTDSGSVCREASFDGISKFEVNNTILHPEIVESRVFKTDMELEVLRYTNKISSEAHREVMKAVKVGMKEYGLESLFEHYCYSRGGMRHSSYTCICGSGENSAVLHYGHAGAPNDRTIQNGDMCLFDMDGEYYSVASDITCSFPRNGKFTADQKAVYEAVLLSSRAVMGAMKPGDWWPDIDRLADRIHLEELAHMGILSGSVDAMVQAHLGAVFMPHGLGHFLGIDVHDVGGYPEGVERIDEPGLRSLRTARHLQPGMVLTVEPGIYFIDHLLDEALADPARASFLNREVLQRFRGFGGVRIEEDVVVIDSGIELLTCVPRTVEEIEACMAGCDKAFTPFSGPK
notes: Made in E. coli and purified by nickel chromatography; The His tag is placed C-terminal by the plasmid's name only; also called PEPD^G278D-His; hPEPD-G278D; not shown: His tag from pBAD/TOPO-PEPD^G278D-His
expression and tyrosine phosphorylation of EGFR (Western blotting, 25 nM, 48 h) [2]: PEPD^G278D obliterated both expression and tyrosine phosphorylation of EGFR and HER2 in SW48, HCT116 and HT29 cells
expression and tyrosine phosphorylation of HER2 (Western blotting, 25 nM, 48 h) [3]: PEPD^G278D obliterated both expression and tyrosine phosphorylation of EGFR and HER2 in SW48, HCT116 and HT29 cells

Source: patent US20250009852A1, “DEPLETING EGFR AND HER2 OVERCOMES RESISTANCE TO EGFR INHIBITORS IN COLORECTAL CANCER” (Health Research, Inc., priority 2021, published 2025)
